Results reported in the nanobody polyreactivity screen of Harvey et al. (2022).

Assay: yeast display, Sf9 membrane polyspecificity reagent, FACS + sequencing; frameworks hold sequencing errors
Procedure, shortened: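 Galactose induction of a Saccharomyces cerevisiae BJ5465 synthetic nanobody display library ran 36–48 hours. The cells were then stained for 1 hour at 4 °C with 10% biotinylated, detergent-solubilized Sf9 membrane reagent, pulled down on streptavidin microbeads and FACS-sorted into low and high (top ~1%) gates on expression and reagent-binding fluorescence. Labels for polyreactivity follow the gate of origin.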

Sequence | polyreactivity (PSR sort gate)
QVQLVESGGGLVKAGVSLRLSSDASGRTFALYAMGWYRQAPGKERELVASIRGGGGTNYADSVKGRFTISRDNAKNTVYLQMNSLKPEDTAVYYCAARGYGYRGYYYWGQGTQVTVSS | high polyreactivity
QVQLVESGGGLVQAGGSLRLSCAASVIIFRQYAMGWSRQAPGKERELVAAISGSGGTTYYADSVKGRFTISRDNAKNTVYLQMNSLKPEDTAVYYCAADSSSRGRLDYWGQGTQVTVSS | high polyreactivity
QVQLEESGGGLVQAGGSLRLSCAASGSIFRYYAMGWYRQAPGKERELVAVITRGGSTYYADSVKGRFTISRDNAKNTVYLQMNSLKPEDTAVYYCAADYWPAGLDRGYWGQGTQVTVSS | low polyreactivity
QVQLVESGVGLVQAGGSLRLSCVASGLTFSRYAMGWYRQAPGKERELVAAISRRGGTTYYADSVKGRFTISRDNAKNTVYLQMKSLKPEDTAVYYCGAGYITWGSGNWVVTPYAYWGQGTQVSVSS | high polyreactivity
QVQLVESGGGLVQAGGSLRLSCAASGRTFVYYAMGWYRQAPGKERELVASISSVGTTKYADSVQGRFTISRANAKNTVYLQMNSLKPEDTAVYYCAAVPLSRNIFDSWGQGTQVTVSS | low polyreactivity
QVQLVDSGVGLVQAGGSLRLSCAASGNTFSSYTMGWYIQAPGKERELVAGISRTGTSTYYADSVKGRFTISRDNAKNSVYLQMNSLKPEDTAVYYCAARTGWWYYWGQGTQVSVSS | high polyreactivity
QVQLVDSGGGLVQAGGSLRLSCAASGFTITRNVMGWYRQAHGKERELVAAITSGGNTNYADSVKGRFTISRDNAKNTVYLQMNSLKPEDTAVYYCATSYHRRYDYWGQGTQVTVSS | low polyreactivity
QVQLVESGGGLVQAGGSLRLSCAASGIIFGFNAMRWYRQAPGKEREFVADITYSGGSTYYADSVKGRFTISRDNAKNTVYLHMNSLKPEDTAVYYCAADEVSFWGYIYDYWGQGTQVTVSS | high polyreactivity
QVHLVESGGGLLQAGGSLRLSCAASGYTFVNYAMGWYREAPRKEMELVAAISYRGGSTSYADSVKGRFTISRDNAKNTVYLQMKSLKPEDSAVYYCAVVGQNWQSLRYDYWGQGTQVTVSS | high polyreactivity
QVKLVETGGGLVQAGGSLRLSCAASGSTFGLYAMGWYRQAPGKERELVAAITWRGGRTYYADSVKGRFTISRDNAKNTVDLQMNSLKPEDTAVNFCAKGYDYYVRRYYYWGQGTQVTVSS | high polyreactivity
QVQLVESGGGLVQAGGSLRLSCAASGYTFFEYTMGWYRQAPGKVREFVAAISWSGGITYYADSVKGRFTISRDNAKNTVYLQMNSLKPEDTAVYYCNADIYSPTPIDYNYWGQGTQVTVSS | low polyreactivity
QVHLGESGGGLVQAGGSLRLSGAASGFTFAVNAMGWYRQAPWNERELVAGITSGGRTNYADSVKGRFTISRDNAKNTVYLQMTSLKPEVTAVYYCAAARRYSKGYVPPYYKYRYDYWGQGTHVTVSS | high polyreactivity
QVQLQESVGLVQAGGLRLSCAASGSVSYQEAMGWYRQAPAKERELVATISFGANTNYADSVKGRFTISRDNAKNTVYLQMNCLKPEDTAVYYCAAESLFDDYYGYWGQGTQVTVSS | low polyreactivity
QVQLVESGGGLVQAGGSLRLSCAASGSTFHLNAMGWYRQAPGKERELVAAISWDGSSTSYADSVKGRFTISRDNAKNTVYLQMNSLKPEDTAVYYCAKRSSGVSVPVAYGGIKRYNSWGQGTQVTVSS | low polyreactivity
QVQLVESGGGLVQAGGSLRLSCAASGRTFQTNVMGWYRQAPGKERELVAAISKTGGRTYYADSVKGRFTISRDNAKNTVYLQMNSLKPEDTAVYYCAADSSGYEDYDYWGQGTQVTVSS | high polyreactivity
QVQLVESGGGLVQAGGSLRLSCAASGSIVRSYAMGWYRQAPGKERELVAAITGGANTYYADSVKGRFTISRDNAKNTVYLQMNSLKPEDTAVYYCAASPIQTGSIFSTFYSYRSYYWGQGTQVTVSS | high polyreactivity
QVQLVESGGGLVQAGGSLRLSSAASGSILYYNAMGWYRQAPGKERELVAAITSYGGDTYYADSVKGRFTISRDNAKNTVYLQMNSLKPEDSAVYYCAASSHFRPWAYYDDDYDHWGQGTQVTVSS | low polyreactivity
QVQLVESGGGLVQAGGSLRLSCAASGSTYYNAMGWYRQAPRKERELVAAIRFRSGSTYYADSVKGRFTISRDNAKITVYFQMNSLKPEDTAVYYCAADNKRSWRYAYNYWGQGTQVTVSS | high polyreactivity
QVQLVESVGGLVQAGGSLRLSCAASGRTFDYYALGWYRQAPGKERELVAAISSSGGRTYYADSVKGRFTISRDNAKNTVYLQMNSLKPEDTAVYYCNAVVSRNYEYWGQGTQVTVSS | high polyreactivity
QVQLVESGGGLVQAGGSLRLSCAASGFTFRRNAMGWYRQAPGKEMELVASISSRGGITYYADSVKGRFTISRDNAKNTVYLQMNSLNPEDTAVYYCAVRFSRYTSNWRQSYDYWGQGTQVTVSS | low polyreactivity
QVKLVESGGGLVQAGGSLRLTCAASGFTFTPNAMGWYRQAPGKEMELVAAITRSSGRTYYADSVKGRFTISRDNAKNTVYLQMNSLKPEDTAVYYCAARYASTPYARFGFWGQGTQVTVSS | high polyreactivity
QVQLVESGGALVQAGGSLRLSCAASGITFYDNAMGWYRQAPGKERELVAGISYSGGRTYYADSVKGRFTISRDNAKNTVYLQMNSLIPEDTAVDYCNARFGKYRSRQGYYYWGQGTQVTVSS | high polyreactivity

Sequence | polyreactivity (PSR sort gate)
QVQLVESGGGLVQAGGSLRLSCAASGSTFQGYAMGRYRQAPGKERELVAGITGSGGSSYYADSVKGRFTISRDNAKNTVYLQMNSLKPEDTAVYYCAARYYQSYYYKYYYWGQGTQVTVSS | high polyreactivity
QVQLVESGGGLVQAGGSLRLSCAASGSTLSRYTMGWSRQAPGKERELVAAIRSSGGSTYYADSVKGRFTISRDNAKNTVYLQMNSLKPEDTAVYYCARTQQRTTEREHWIRYYYWGQGTQVTVSS | low polyreactivity
QVQLQESGGGLVQAGGSLLSCAASGTISWVDEMGWYLQAPGNERELVAGIAGGGNTNYADSVKGRFTISRDNAKNTVYLQMNSLDTAVYYCAVVGFGRGTHIYWGQGTQVTVSS | high polyreactivity
QVQLVDSAGGLVQAGGILRLSCAASGFTFDAKSRGWYRQAPGTERELVDAISLSDGSTYYADSVKGRFTISRDNAKNTVYLQMNSLKPEDTAVYYCNAERFGSGLAWLLFDYWGQGTQVTVSS | low polyreactivity
QVQLVESGGGLVQAGGSLRLSCAASGRNFGYYVMGWYRQAPGKERELVAAIRSSADSTYYADSVKGRFTISRDNAKNTVYLQMNSLKPEDTAVYYCAAQSPAYYTKCYWGQGTQVTVSS | low polyreactivity
QVQLVESGGGLVQAGGSLRLSCAAYGRTFWRNAMGWYRQAPGKEREWVAAISRSGDSTRYADSLKGRFTISRDNAKNTFYLQMNSLKPEDTAVYYCNKLGTRVYEMDYWGQGTQVTVSS | high polyreactivity
QVQLVESGAGLVQAGGSLRLSCAASVRIFDSYAMGWSRQAPGKERELVAAITGSGGRTYYAESVKGRFTISRDNAKNTVYLQMNSQKPEYTAVYYCARALGQRRYDYWGQGTHVTVSS | high polyreactivity
QDQLVETGLGLVQAGGSLRLSLAASGRTFSYAKAWYRQEPGKERELVAAITKRGGSTNFADSVKGRFTISRDNAKNTVYLQMNSLKPEDTAVYYCATDPYHGSYLTYGRMDYWGQGTQVTVSS | high polyreactivity
QVQLVESGGGLVQAGGSLRLSCAASGLTFKENVMGWYRQAPGKERELVAAISTGASTYYADSVKGRFTISRDNAKNTVYLQMNSLKPEDTAVYYCAKRVTRWYGYWGQGTQVTVSS | high polyreactivity
QVQLVESAGGLVQAGGSLRLSCAASGRTIDSYTMGWYRQAPGKERELVASISKRGGSTYYADSVKERFTISRDNAKNTVYLQMNSLKPQDTAVYYCATKSYYVSYYRYRVDYWGQVTQVTVSS | high polyreactivity
QVQLVESGGGLVQAGGSLRLSCAASGRIFGGYAMGWYRQAPGKERELVASITGGGTTDYADSVKGRFTISRDNAKNTVYLQMNSLKPEDTAVYYCAKRSHQFGVSRSYNTYYYWGQGTQVTVSS | low polyreactivity
QVQLVESGGGLVQAGGSLRLSCAASGRPFKPYAMGWYRPAPGKERELVAVISSTGSTKYADSVKGRFTISRDNAKNTVYLQMNSLKPEDTAVYYCNAGSLYSDRWVKRKYDYSGQGTQVTVSS | high polyreactivity
QVQLVESGGGLVQAGGSLRLSCAASGSIFRNYAMGWYRQAPGKERELVATISWNGGRTHYADSVKGRFTISRDNAKNTVYLQMNSLKPVDTAVYYCNKDAASFRHFYGYGYWGQGTQVTVSS | low polyreactivity
QVQLVESGGGLVQAGGSLRLSCAASGRIFIRAMGCYTQAPGKERELVAGITNGGITYYADSVKGRFTISRDNAKTTVYLQMNSLKPEDTAVYSCNARSRSVLYKYDYWGQGTQETVSS | low polyreactivity
QVQLVESGGGLVQAGGSLRLSCAASGRIFWYYAMGWYRQAPGKERELVARISSSGGSTYYADSVKGRFTISRDNAKNTVYLQMNSLKTDYTAVYFWAKERYSGSSRYPMDYWGQGTQVTVSS | high polyreactivity
QVQLVESGGGLVQAGGSLLLSCAASGRIFFTNAMGWYRQAPRKERELVAAISKSGARTYYADSVKGRFTISRDKAKNTVYLQMNSLKPEDTAVYYCATDYAFPQYDDWGQGTQVTVSS | high polyreactivity
QVQLVESGGGLVQAGGSLRLSCAASGSTFKRNAMGWYRPAPGKERELVAAITFSGATTYYADSVKGRFTISRDNAKNTVYLQMNSLKPEDTAVYYCATKAYTTGRYYWGQGTQVTVSS | high polyreactivity
QVQLVESGGGLVQAGGSLRLSCAASGFTICTYAMGWYRQAPGKERELVAAIDSGGSTYYADSVMGRFTISRDNAKTTVYLQMNSLKPEDTAVYYCNAGPSVTSGYDYDYWGQGTQVTVSS | low polyreactivity
QVQLVESGGGLVQAGGSLRLSCAASGSTFATNAMGWYRQAPGKERELVATISSDGSTNYADSVKGRFTISRDNAKNTVYLQMNSLKPEDTAVYYCATEVTYPWHVDEGDYWGQGTQVTVSS | low polyreactivity
QVQLVESCGGLVQAGGSLRLSCAASGSTFDGYAMGWYRQAPVKERELVAAISASGGSTYYADSVKGRFTISRDNAKNTVYLQMNSLKPEDTAVYYCNSEPFDLWAFYYCYVYGYYHWGQGTQVTVSS | high polyreactivity
QVQLVESGGGLVQAGGSLRLSCAASGRNFKYYAMGWYRPAPGKERELVAAISWSGGSTYYADSVKGRFTISRDNAKNTVYLQMNSLKPEDTAVYYCATYGGLTKFRLAYDYWGQGTQVTVSS | high polyreactivity
